Consider 8 variants from IntAct's records for PubMed 31515488.

The chains are these.
B1: Paraneoplastic antigen-like protein 5 (Homo sapiens), Q96PV4 (parent)
chain: MALTLLEDWCKGMDMDPRKALLIVGIPMECSEVEIQDTVKAGLQPLCAYRVLGRMFRREDNAKAVFIELADTVNYTTLPSHIPGKGGSWEVVVKPRNPDDEFLSRLNYFLKDEGRSMTDVARALGCCSLPAESLDAEVMPQVRSPPLEPPKESMWYRKLKVFSGTASPSPGEETFEDWLEQVTEIMPIWQVSEVEKRRRLLESLRGPALSIMRVLQANNDSITVEQCLDALKQIFGDKEDFRASQFRFLQTSPKIGEKVSTFLLRLEPLLQKAVHKSPLSVRSTDMIRLKHLLARVAMTPALRGKLELLDQRGCPPNFLELMKLIRDEEEWENTEAVMKNKEKPSGRGRGASGRQARAEASVSAPQATVQARSFSDSSPQTIQGGLPPLVKRRRLLGSESTRGEDHGQATYPKAENQTPGREGPQAAGEELGNEAGAGAMSHPKPWET
B2: Ribonuclease P protein subunit p30 (Homo sapiens), P78346 (parent)
chain: MAVFADLDLRAGSDLKALRGLVETAAHLGYSVVAINHIVDFKEKKQEIEKPVAVSELFTTLPIVQGKSRPIKILTRLTIIVSDPSHCNVLRATSSRARLYDVVAVFPKTEKLFHIACTHLDVDLVCITVTEKLPFYFKRPPINVAIDRGLAFELVYSPAIKDSTMRRYTISSALNLMQICKGKNVIISSAAERPLEIRGPYDVANLGLLFGLSESDAKAAVSTNCRAALLHGETRKTAFGIISTVKKPRPSEGDEDCLPASKKAKCEG
B3: Aflatoxin B1 aldehyde reductase member 2 (Homo sapiens), O43488 (parent)
chain: MLSAASRVVSRAAVHCALRSPPPEARALAMSRPPPPRVASVLGTMEMGRRMDAPASAAAVRAFLERGHTELDTAFMYSDGQSETILGGLGLGLGGGDCRVKIATKANPWDGKSLKPDSVRSQLETSLKRLQCPQVDLFYLHAPDHGTPVEETLHACQRLHQEGKFVELGLSNYASWEVAEICTLCKSNGWILPTVYQGMYNATTRQVETELFPCLRHFGLRFYAYNPLAGGLLTGKYKYEDKDGKQPVGRFFGNSWAETYRNRFWKEHHFEAIALVEKALQAAYGASAPSVTSAALRWMYHHSQLQGAHGDAVILGMSSLEQLEQNLAATEEGPLEPAVVDAFNQAWHLVAHECPNYFR
B4: Coiled-coil domain-containing protein 106 (Homo sapiens), Q9BWC9 (parent)
chain: MNDRSSRRRTMKDDETFEISIPFDEAPHLDPQIFYSLSPSRRNFEEPPEAASSALALMNSVKTQLHMALERNSWLQKRIEDLEEERDFLRCQLDKFISSARMEAEDHCRMKPGPRRMEGDSRGGAGGEASDPESAASSLSGASEEGSASERRRQKQKGGASRRRFGKPKARERQRVKDADGVLCRYKKILGTFQKLKSMSRAFEHHRVDRNTVALTTPIAELLIVAPEKLAEVGEFDPSKERLLEYSRRCFLALDDETLKKVQALKKSKLLLPITYRFKR
B5: Histone-lysine N-methyltransferase SMYD1 (Homo sapiens), Q8NB12 (parent)
chain: MTIGRMENVEVFTAEGKGRGLKATKEFWAADIIFAERAYSAVVFDSLVNFVCHTCFKRQEKLHRCGQCKFAHYCDRTCQKDAWLNHKNECSAIKRYGKVPNENIRLAARIMWRVEREGTGLTEGCLVSVDDLQNHVEHFGEEEQKDLRVDVDTFLQYWPPQSQQFSMQYISHIFGVINCNGFTLSDQRGLQAVGVGIFPNLGLVNHDCWPNCTVIFNNGNHEAVKSMFHTQMRIELRALGKISEGEELTVSYIDFLNVSEERKRQLKKQYYFDCTCEHCQKKLKDDLFLGVKDNPKPSQEVVKEMIQFSKDTLEKIDKARSEGLYHEVVKLCRECLEKQEPVFADTNIYMLRMLSIVSEVLSYLQAFEEASFYARRMVDGYMKLYHPNNAQLGMAVMRAGLTNWHAGNIEVGHGMICKAYAILLVTHGPSHPITKDLEAMRVQTEMELRMFRQNEFMYYKMREAALNNQPMQVMAEPSNEPSPALFHKKQ

Variants of B1 are the subject of the first test. The settings on record: with arpc4_human ARPC4, P59998.
As for V274M, the “effect of a mutation on the interaction” value is “with no effect”.

As for L21Q, the “effect of a mutation on the interaction” value is “disrupting interaction strength”.

R312Q: the “effect of a mutation on the interaction” value is “with no effect”.

For the variant T261A, the “effect of a mutation on the interaction” value is recorded as “with no effect”.

In another test the parent is B1. The settings on record: with zfy26_human ZFYVE26, Q68DK2.
Sequence of zfy26_human ZFYVE26, Q68DK2 (Q68DK2 whole entry): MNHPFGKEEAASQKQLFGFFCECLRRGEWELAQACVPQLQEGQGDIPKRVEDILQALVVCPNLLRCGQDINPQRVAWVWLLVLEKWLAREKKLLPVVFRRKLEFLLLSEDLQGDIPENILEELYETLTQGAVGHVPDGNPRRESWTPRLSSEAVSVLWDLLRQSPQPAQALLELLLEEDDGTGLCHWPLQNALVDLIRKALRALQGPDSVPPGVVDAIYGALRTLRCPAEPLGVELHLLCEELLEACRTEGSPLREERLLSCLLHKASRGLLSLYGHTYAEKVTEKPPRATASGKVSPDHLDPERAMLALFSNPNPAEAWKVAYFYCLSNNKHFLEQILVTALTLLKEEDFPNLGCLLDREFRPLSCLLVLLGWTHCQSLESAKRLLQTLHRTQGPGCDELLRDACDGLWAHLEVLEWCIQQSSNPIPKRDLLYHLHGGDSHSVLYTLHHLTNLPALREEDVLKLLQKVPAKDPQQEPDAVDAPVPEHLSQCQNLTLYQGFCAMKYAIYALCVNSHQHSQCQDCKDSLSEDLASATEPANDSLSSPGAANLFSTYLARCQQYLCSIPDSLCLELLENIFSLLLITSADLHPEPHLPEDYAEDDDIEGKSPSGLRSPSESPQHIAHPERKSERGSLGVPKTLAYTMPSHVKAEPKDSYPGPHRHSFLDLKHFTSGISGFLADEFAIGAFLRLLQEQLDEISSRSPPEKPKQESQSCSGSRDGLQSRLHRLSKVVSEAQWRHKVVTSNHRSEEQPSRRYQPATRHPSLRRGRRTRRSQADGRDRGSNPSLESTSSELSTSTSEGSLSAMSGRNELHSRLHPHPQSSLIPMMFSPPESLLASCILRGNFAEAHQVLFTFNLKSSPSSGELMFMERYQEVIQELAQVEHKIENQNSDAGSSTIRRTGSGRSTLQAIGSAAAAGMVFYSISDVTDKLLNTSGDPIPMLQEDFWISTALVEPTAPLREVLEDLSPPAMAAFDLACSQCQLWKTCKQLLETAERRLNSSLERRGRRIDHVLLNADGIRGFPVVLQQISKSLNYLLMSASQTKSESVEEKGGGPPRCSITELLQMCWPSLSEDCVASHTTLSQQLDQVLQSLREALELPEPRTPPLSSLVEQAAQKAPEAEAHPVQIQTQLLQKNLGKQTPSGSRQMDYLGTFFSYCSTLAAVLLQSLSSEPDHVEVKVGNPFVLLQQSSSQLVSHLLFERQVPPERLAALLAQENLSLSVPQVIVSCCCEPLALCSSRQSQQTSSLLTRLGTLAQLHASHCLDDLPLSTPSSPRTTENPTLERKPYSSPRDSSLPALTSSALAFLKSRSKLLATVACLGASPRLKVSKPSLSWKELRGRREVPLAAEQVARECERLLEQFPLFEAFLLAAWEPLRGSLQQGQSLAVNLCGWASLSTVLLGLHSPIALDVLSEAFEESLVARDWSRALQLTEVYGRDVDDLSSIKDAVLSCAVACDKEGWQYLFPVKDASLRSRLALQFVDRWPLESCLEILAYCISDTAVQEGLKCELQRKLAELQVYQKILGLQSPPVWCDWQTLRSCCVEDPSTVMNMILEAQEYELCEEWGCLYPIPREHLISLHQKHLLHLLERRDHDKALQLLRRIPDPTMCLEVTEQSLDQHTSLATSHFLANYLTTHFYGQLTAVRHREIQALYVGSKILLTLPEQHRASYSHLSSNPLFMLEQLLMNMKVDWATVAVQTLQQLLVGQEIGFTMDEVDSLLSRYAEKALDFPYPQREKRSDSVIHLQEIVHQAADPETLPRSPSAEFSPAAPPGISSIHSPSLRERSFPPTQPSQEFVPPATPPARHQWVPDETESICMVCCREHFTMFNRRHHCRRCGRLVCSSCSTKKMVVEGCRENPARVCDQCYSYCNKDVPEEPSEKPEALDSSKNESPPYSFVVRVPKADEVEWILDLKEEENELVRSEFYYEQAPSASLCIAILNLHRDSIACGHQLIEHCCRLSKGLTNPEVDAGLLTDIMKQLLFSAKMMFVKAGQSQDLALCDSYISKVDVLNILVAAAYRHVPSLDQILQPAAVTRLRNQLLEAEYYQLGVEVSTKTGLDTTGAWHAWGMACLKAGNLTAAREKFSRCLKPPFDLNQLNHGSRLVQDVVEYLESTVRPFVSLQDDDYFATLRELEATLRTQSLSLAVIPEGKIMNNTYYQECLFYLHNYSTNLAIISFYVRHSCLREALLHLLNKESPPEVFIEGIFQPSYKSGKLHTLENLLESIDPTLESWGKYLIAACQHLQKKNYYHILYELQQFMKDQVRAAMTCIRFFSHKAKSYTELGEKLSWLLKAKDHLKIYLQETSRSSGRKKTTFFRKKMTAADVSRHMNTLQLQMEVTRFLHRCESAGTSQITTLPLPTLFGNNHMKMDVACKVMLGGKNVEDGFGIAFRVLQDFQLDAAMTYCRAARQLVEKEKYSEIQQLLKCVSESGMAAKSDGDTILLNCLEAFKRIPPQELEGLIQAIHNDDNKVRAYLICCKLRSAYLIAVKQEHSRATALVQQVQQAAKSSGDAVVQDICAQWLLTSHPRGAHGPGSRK
For the variant V274M, the “effect of a mutation on the interaction” value was “with no effect”.

On to L21Q, for which the “effect of a mutation on the interaction” value is given as “disrupting interaction strength”.

As for R312Q, the “effect of a mutation on the interaction” value is recorded as “with no effect”.

With T261A, the “effect of a mutation on the interaction” value is listed as “with no effect”.

The variants in a further test derive from B1. As to conditions: with ccnc_human CCNC.
Turning to V274M, the “effect of a mutation on the interaction” value is “with no effect”.

On to L21Q, for which the “effect of a mutation on the interaction” value was “disrupting interaction strength”.

Regarding R312Q, the “effect of a mutation on the interaction” value was “with no effect”.

On to T261A, for which the “effect of a mutation on the interaction” value is recorded as “with no effect”.

The variants in the next test derive from B1. As to conditions: with aapk1_human PRKAA1, Q13131.
Sequence of aapk1_human PRKAA1, Q13131 (Q13131 whole entry, looked up): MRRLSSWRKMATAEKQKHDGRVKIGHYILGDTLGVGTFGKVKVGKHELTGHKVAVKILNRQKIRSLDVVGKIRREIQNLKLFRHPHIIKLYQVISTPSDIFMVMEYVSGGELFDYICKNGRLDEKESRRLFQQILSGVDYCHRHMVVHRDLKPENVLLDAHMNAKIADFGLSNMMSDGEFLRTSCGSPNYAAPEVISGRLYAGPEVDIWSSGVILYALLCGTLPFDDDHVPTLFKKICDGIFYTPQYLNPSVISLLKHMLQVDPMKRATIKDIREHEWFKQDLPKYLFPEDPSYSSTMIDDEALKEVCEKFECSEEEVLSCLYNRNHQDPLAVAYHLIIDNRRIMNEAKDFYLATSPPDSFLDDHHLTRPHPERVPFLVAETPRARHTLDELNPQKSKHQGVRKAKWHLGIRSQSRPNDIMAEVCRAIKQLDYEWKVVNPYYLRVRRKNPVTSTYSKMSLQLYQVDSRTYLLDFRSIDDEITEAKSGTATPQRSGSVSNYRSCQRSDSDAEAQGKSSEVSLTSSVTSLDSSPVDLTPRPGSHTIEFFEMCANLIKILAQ
For V274M, the “effect of a mutation on the interaction” value is “with no effect”.

In the case of L21Q, the “effect of a mutation on the interaction” value is listed as “disrupting interaction strength”.

With R312Q, the “effect of a mutation on the interaction” value is reported as “with no effect”.

On to T261A, for which the “effect of a mutation on the interaction” value is “with no effect”.

Variants of B2 are the subject of another test. The settings on record: with hm20a_human HMG20A.
G12D: the “effect of a mutation on the interaction” value is “with no effect”.

A further test covers variants of B3. The settings on record: with ark73_human AKR7A3, O95154.
For A142T, the “effect of a mutation on the interaction” value was “disrupting interaction strength”.

The variants in another test derive from B3. As to conditions: with cep70_human CEP70, Q8NHQ1.
Sequence of cep70_human CEP70, Q8NHQ1 (Q8NHQ1 whole entry): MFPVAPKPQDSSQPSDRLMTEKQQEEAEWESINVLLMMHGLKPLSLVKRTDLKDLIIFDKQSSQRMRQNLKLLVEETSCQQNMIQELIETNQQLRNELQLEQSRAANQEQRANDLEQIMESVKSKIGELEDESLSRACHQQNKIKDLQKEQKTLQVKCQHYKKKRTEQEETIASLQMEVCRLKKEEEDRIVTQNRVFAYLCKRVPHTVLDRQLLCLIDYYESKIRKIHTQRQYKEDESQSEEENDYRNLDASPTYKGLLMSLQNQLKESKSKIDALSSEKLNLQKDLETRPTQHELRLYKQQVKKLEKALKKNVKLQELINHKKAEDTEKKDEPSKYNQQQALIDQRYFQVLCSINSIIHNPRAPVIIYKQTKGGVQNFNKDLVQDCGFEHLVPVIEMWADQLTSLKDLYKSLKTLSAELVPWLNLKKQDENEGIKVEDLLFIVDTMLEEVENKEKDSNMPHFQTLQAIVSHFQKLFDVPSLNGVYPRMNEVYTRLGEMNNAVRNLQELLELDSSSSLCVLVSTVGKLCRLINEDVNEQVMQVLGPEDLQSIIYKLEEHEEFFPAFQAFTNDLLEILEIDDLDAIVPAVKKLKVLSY
As to A142T, the “effect of a mutation on the interaction” value is reported as “disrupting interaction strength”.

In a further test the parent is B4. The settings on record: with atf4_human ATF4, P18848.
Sequence of atf4_human ATF4, P18848 (P18848 whole entry): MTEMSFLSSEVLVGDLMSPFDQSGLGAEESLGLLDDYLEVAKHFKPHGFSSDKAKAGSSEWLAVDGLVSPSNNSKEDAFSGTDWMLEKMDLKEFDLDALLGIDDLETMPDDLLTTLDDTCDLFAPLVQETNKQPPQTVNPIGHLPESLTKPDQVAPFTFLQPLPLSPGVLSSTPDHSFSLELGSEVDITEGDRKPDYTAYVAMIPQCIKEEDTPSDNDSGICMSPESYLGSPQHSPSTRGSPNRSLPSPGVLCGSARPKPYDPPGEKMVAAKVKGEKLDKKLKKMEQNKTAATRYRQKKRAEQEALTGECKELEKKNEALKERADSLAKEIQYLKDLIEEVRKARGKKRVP
For A54T, the “effect of a mutation on the interaction” value is listed as “with no effect”.

In another test the parent is B4. As to conditions: with fam9b_human FAM9B.
Take A54T: the “effect of a mutation on the interaction” value is given as “with no effect”.

The variants in a further test derive from B4. The settings on record: with ptbp2_human PTBP2, Q9UKA9.
Sequence of ptbp2_human PTBP2, Q9UKA9 (Q9UKA9 whole entry): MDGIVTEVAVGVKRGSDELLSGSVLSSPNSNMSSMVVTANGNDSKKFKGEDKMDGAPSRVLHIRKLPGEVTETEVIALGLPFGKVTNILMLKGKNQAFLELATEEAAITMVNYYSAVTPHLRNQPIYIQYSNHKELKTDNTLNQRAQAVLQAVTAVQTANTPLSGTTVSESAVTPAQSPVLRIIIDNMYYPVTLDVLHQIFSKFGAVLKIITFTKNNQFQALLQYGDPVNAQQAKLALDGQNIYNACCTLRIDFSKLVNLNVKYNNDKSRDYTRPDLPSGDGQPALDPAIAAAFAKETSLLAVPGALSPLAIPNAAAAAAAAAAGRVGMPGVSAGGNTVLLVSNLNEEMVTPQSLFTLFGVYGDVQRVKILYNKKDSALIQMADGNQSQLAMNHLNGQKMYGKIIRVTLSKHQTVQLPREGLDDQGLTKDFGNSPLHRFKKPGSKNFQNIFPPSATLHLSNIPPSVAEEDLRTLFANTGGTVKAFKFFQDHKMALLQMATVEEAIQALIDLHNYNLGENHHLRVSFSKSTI
Turning to A54T, the “effect of a mutation on the interaction” value is recorded as “with no effect”.

Variants of B5 are the subject of another test. The settings on record: with bhe40_human BHLHE40, O14503.
Sequence of bhe40_human BHLHE40, O14503 (O14503 whole entry): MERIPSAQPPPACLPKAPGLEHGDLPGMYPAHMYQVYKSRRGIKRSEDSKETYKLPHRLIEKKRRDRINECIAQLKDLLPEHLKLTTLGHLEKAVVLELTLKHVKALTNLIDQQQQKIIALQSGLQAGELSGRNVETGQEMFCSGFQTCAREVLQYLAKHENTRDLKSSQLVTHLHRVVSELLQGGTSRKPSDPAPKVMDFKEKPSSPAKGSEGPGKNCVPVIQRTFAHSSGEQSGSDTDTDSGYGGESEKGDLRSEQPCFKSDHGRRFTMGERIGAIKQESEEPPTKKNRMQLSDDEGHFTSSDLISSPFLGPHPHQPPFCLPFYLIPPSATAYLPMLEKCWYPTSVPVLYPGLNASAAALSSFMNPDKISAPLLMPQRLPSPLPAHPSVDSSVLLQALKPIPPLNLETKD
On to R441W, for which the “effect of a mutation on the interaction” value was “with no effect”.
